{
  "source": "patent CN114634565A",
  "key": {"[1]": {"biological_target": "裂谷热病毒Gn蛋白 (GenBank: DQ380208.1) (裂谷热病毒 (Rift Valley fever virus))"}, "[2]": {"biological_target": "裂谷热病毒Gn蛋白 (GenBank: DQ380208.1) (裂谷热病毒 (Rift Valley fever virus))", "remark": "listed apart in the source"}, "[3]": {"biological_target": "裂谷热病毒Gn蛋白 (GenBank: DQ380208.1) (裂谷热病毒 (Rift Valley fever virus))", "remark": "listed apart in the source"}},
  "data": [
    {"binder": "抗裂谷热病毒的单克隆抗体E44 (antibody, V domains shown) VH: QVQLQQWGEGLVNPSEALSLTCAVYGDSISDDYHWSWIRQPPGKGLEWIGYIFGSSAGTNYNPSLKNRVTISKDTSKNQFSLELTSVTAADTAVYYCARDVTTDRLDVWGPGVPVTVSS VL: NFMLTQPPSVSADQGQRVTISCSGSSFNVRRYYVSWYQQVPGAAPKLLISDVNKRPSGVSDRFSGSQSGTSATLGISGLRPEDEADYYCSVWDSSLGARVFGGGTRLTVLG", "values": [
      {"measurement": "EC50", "setting": "[1]", "value": 2.66, "unit": "ng/mL"},
      {"measurement": "Kd", "setting": "[2]", "value": 2.58, "unit": "nM"},
      {"measurement": "OD值 (OD450nm-OD630nm)", "setting": "[3]", "value": 2.35}
    ]}
  ]
}
